Source: patent publication US20040241778

Columns and labels:
[1] = molecular target: IGFBP-5 (commercially available, upstate biotechnology), P24593
[2] = molecular target: IGFBP-5-FLAG protein (full-length IGFBP-5 with the FLAG tag of SEQ ID NO: 12 at the C-terminus), P24593
[3] = molecular target: IGFBP-3 (commercially available, upstate biotechnology), P17936
Chain of IGFBP-3 (commercially available, upstate biotechnology), P17936 (P17936 28-291): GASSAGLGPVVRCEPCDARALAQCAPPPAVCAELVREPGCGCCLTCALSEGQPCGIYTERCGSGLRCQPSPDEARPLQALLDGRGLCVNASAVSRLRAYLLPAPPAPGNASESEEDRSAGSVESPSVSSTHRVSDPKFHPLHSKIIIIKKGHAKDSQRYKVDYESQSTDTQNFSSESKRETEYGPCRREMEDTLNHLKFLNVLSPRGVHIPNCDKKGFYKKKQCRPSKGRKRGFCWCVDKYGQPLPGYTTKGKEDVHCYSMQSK

Chain of IGFBP-5-FLAG protein (full-length IGFBP-5 with the FLAG tag of SEQ ID NO: 12 at the C-terminus), P24593 (P24593 other isoform, or with tags, fused parts or gaps): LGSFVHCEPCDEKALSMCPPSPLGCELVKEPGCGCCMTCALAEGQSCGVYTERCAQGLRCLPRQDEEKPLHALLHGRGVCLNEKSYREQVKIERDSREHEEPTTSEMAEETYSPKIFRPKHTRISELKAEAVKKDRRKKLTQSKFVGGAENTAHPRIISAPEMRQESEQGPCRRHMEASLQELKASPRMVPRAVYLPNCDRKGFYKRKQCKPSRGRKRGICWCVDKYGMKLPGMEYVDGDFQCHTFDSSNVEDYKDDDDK
Chain of IGFBP-5 (commercially available, upstate biotechnology), P24593 (P24593 21-272): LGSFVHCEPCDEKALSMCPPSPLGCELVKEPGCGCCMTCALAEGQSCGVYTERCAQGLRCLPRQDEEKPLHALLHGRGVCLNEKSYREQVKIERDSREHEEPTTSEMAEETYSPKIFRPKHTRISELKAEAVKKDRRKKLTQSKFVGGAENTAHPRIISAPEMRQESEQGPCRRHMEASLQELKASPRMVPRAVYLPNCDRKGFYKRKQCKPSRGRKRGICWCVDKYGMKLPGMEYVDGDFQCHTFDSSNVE

B1: MD8S-FLAG protein (extracellular region of human MD8, amino acids 1 to 646 of SEQ ID NO: 2, with a C-terminal FLAG tag) (protein)
chain: IAPSRPWALMEQYEVVLPRRLPGPRVRRALPSHLGLHPERVSYVLGATGHNFTLHLRKNRDLLGSGYTETYTAANGSEVTEQPRGQDHCFYQGHVEGYPDSAASLSTCAGLRGFFQVGSDLHLIEPLDEGGEGGRHAVYQAEHLLQTAGTCGVSDDSLGSLLGPRTAAVFRPRPGDSLPSRETRYVELYVVVDNAEFQMLGSEAAVRHRVLEVVNHVDKLYQKLNFRVVLVGLEIWNSQDRFHVSPDPSVTLENLLTWQARQRTRRHLHDNVQLITGVDFTGTTVGFARVSAMCSHSSGAVNQDHSKNPVGVACTMAHEMGHNLGMDHDENVQGCRCQERFEAGRCIMAGSIGSSFPRMFSDCSQAYLESFLERPQSVCLANAPDLSHLVGGPVCGNLFVERGEQCDCGPPEDCRNRCCNSTTCQLAEGAQCAHGTCCQECKVKPAGELCRPKKDMCDLEEFCDGRHPECPEDAFQENGTPCSGGYCYNGACPTLAQQCQAFWGPGGQAAEESCFSYDILPGCKASRYRADMCGVLQCKGGQQPLGRAICIVDVCHALTTEDGTAYEPVPEGTRCGPEKVCWKGRCQDLHVYRSSNCSAQCHNHGVCNHKQECHCHAGWAPPHCAKLLTEDYKDDDDK
activity of digesting IGFBP-5 (overnight reaction at 37 C, SDS-PAGE and western blot) [1]: new plural bands within the range of 12 to 25 kDa were detected in the case of IGFBP-5
activity of digesting recombinant IGFBP-5 (overnight reaction at 37 C, SDS-PAGE and western blot with biotinylated M2 antibody) [2]: recombinant IGFBP-5, which was detected in the control without the MD8S enzyme solution, was made to disappear by adding the MD8S enzyme solution
activity of digesting IGFBP-3 (overnight reaction at 37 C, SDS-PAGE and western blot) [3]: a new band of 25 kDa was detected in the case of IGFBP-3
